The data set deals with the molecule itself. Briefly: Thioflavin T fluorescence seeding assay; 10 µM monomeric Met-Aβ or CT-medin with 0.5 µM sonicated pre-formed seeds of either peptide; 50 mM Tris pH 8, 25 µM ThT, 30 °C.

Consider one protein from publication PMC9712113, “Medin co-aggregates with vascular amyloid-β in Alzheimer’s disease” (Nature, 2022).

B1: C-terminal fragment of medin (peptide)
peptide: EVTGIITQGARNFGSVQFVASYK
notes: C-terminal fragment of medin / MFG-E8, identified in tissue extracts by mass spectrometry; also called CT-medin; C-terminal medin fragment; source: synthetic peptide (Intavis Multipep RSi solid phase synthesis, purity >90%)
For B1, the binding result was “binds”.
